Test results as given in US20030148958A1 (PROCTER AND GAMBLE, published 2003).
Ends that are not written are not given here.

T1: CRF2R
T1 sequence (Q13324 whole entry, species assumed, looked up): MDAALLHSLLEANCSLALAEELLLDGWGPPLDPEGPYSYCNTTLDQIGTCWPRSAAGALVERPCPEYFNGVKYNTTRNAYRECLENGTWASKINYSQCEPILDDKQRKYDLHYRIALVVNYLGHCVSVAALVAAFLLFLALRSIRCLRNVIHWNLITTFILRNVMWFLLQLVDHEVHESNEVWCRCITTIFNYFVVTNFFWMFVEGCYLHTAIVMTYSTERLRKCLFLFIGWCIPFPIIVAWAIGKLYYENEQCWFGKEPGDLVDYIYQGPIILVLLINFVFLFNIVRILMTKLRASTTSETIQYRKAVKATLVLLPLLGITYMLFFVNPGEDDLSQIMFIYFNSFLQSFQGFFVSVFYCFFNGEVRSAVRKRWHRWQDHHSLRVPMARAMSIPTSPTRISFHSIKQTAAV


How the values were obtained:
CRF2R = target: T1, CRF2R; assay: cell-based or functional assay
CRF1R = assay: cell-based or functional assay
For CRF1R Emax % in this document: reference of the scale not given here.
For CRF2R Emax % in this document: reference of the scale not given here.

| CRF2R EC50 (CRF2R) [nM] | CRF2R Emax % (CRF2R) [%] | CRF1R EC50 (CRF1R) [nM] | CRF1R Emax % (CRF1R) [%] | Binder |
| --- | --- | --- | --- | --- |
| 16.7 | 100 | 753 | 88 | ZGPPISIDLPLHLLRKMIEIEKQEKEKQQATTNARLLDTV (C-terminal amide) [SEQ ID NO 238] |
| 13.2 | 100 | 587 | 80 | ZGPPISIDLPLHLLRKMIEIEKQEKEKQQATTNARLLDRV (C-terminal amide) [SEQ ID NO 239] |
| 21.3 | 100 | 445 | 100 | ZGPPISIDLPHQLLRKMIEIEKQEKEKQQAANNRLLLDTI (C-terminal amide) [SEQ ID NO 212] |
| 9.4 | 100 | 384 | 95 | ZGPPISIDLPAFLLRKMIEIEKQEKEKQQAANNRLLLDTI (C-terminal amide) [SEQ ID NO 222] |
| 7.6 | 100 | 315 | 95 | ZGPPISIDLPYYLLRKMIEIEKQEKEKQQAANNALLLDTI (C-terminal amide) [SEQ ID NO 226] |
| 8.5 | 100 | 236 | 100 | ZGPPISIDLPQFLLRKMIEIEKQEKEKQQAANNRLLLDTI (C-terminal amide) [SEQ ID NO 221] |
| 22 | 100 | 915 | 80 | ZGPPISIDLPLHLLRKMIEIEKQEKEKQQAANNALLLDTI (C-terminal amide) [SEQ ID NO 240] |
| 33.6 | 95 | 918 | 18 | ZGPPISIDLPQYLLRKMIEIEKQEKEKQQAANNALLLATI (C-terminal amide) [SEQ ID NO 227] |
| 45.3 | 100 | 1000 | 7 | ZGPPISIDLPTYLLRKMIEIEKQEKEKQQAANNALLLDTI (C-terminal amide) [SEQ ID NO 232] |
| 46.1 | 95 | 1000 | 11 | ZGPPISIDLPTYLLRKMIEIEKQEKEKQQAANNALLLATI (C-terminal amide) [SEQ ID NO 233] |
| 9.9 | 90 | 49.8 | 98 | ZGPPISIDLPWWLLRKMIEIEKQEKEKQQAANNRLLLDTI (C-terminal amide) [SEQ ID NO 216] |
| 3 | 92 | 48.1 | 81 | ZGPPISIDLPFFLLRKMIEIEKQEKEKQQAANNRLLLDTI (C-terminal amide) [SEQ ID NO 223] |
| 4.1 | 98 | 63.6 | 81 | ZGPPISIDLPYFLLRKMIEIEKQEKEKQQAANNRLLLDTI (C-terminal amide) [SEQ ID NO 220] |
| 25.7 | 100 | 806 | 70 | ZGPPISIDLPLELLRKMIEIEKQEKEKQQAANNALLLDTI (C-terminal amide) [SEQ ID NO 235] |
| 22.3 | 99 | 1000 | 76 | ZGPPISIDLPQWLLRKMIEIEKQEKEKQQAANNRLLLDTI (C-terminal amide) [SEQ ID NO 213] |
| 26.9 | 100 | 1000 | 27 | ZGPPISIDLPQYLLRKMIEIEKQEKEKQQAANNALLLDTI (C-terminal amide) [SEQ ID NO 224] |
| 4.7 | 95 | 94.7 | 100 | ZGPPISIDLPFWLLRKMIEIEKQEKEKQQAANNRLLLDTI (C-terminal amide) [SEQ ID NO 217] |
| 40.4 | 97 | 1000 | 15 | ZGPPISIDLPIYLLRKMIEIEKQEKEKQQAANNALLLDTI (C-terminal amide) [SEQ ID NO 236] |
| 4.8 | 96 | 98.4 | 100 | ZGPPISIDLPLWLLRKMIEIEKQEKEKQQAANNRLLLDTI (C-terminal amide) [SEQ ID NO 218] |

| CRF2R EC50 (CRF2R) [nM] | CRF2R Emax % (CRF2R) [%] | CRF1R EC50 (CRF1R) [nM] | CRF1R Emax % (CRF1R) [%] | Binder |
| --- | --- | --- | --- | --- |
| 5.9 | 100 | 94 | 100 | ZGPPISIDLPFYLLRKMIEIEKQEKEKQQAANNALLLATI (C-terminal amide) [SEQ ID NO 231] |
| 4.8 | 89 | 220 | 97 | ZGPPISIDLPYYLLRKMIEIEKQEKEKQQAANNALLLATI (C-terminal amide) [SEQ ID NO 225] |
| 8.1 | 100 | 219 | 100 | ZGPPISIDLPFYLLRKMIEIEKQEKEKQQAANNALLLDTI (C-terminal amide) [SEQ ID NO 230] |
| 4 | 100 | 188 | 100 | ZGPPISIDLPYWLLRKMIEIEKQEKEKQQAANNRLLLDTI (C-terminal amide) [SEQ ID NO 215] |
| 22.2 | 93 | 1000 | 18 | ZGPPISIDLPIYLLRKMIEIEKQEKEKQQAANNALLLATI (C-terminal amide) [SEQ ID NO 237] |
| 7.1 | 100 | 276 | 100 | ZGPPISIDLPFHLLRKMIEIEKQEKEKQQAANNALLLDTI (C-terminal amide) [SEQ ID NO 228] |
| 10.3 | 100 | 298 | 100 | ZGPPISIDLPFHLLRKMIEIEKQEKEKQQAANNALLLATI (C-terminal amide) [SEQ ID NO 229] |
| 7.8 | 98 | 80.9 | 100 | ZGPPISIDLPHFLLRKMIEIEKQEKEKQQAANNRLLLDTI (C-terminal amide) [SEQ ID NO 219] |
| 12.7 | 99 | 1000 | 27 | ZGPPISIDVPLQLLRKVIEIEKQEKEKQQAANNARLLARI (C-terminal amide) [SEQ ID NO 381] |
| 39.5 | 100 | 1000 | 8 | ZGPPISIDVPFQLLRKVIEIEKQEKEKQQAANNARLLDTI (C-terminal amide) [SEQ ID NO 382] |
| 12.6 | 99 | 308 | 99 | ZGPPISIDLPLHLLRKMIEIEKQEKEKQQAANNALLLATI (C-terminal amide) [SEQ ID NO 241] |
| 20.6 | 100 | 434 | 96 | ZGPPISIDLPLELLRKMIEIEKQEKEKQQAANNALLLATI (C-terminal amide) [SEQ ID NO 234] |
| 9.31 | 96 | 1000 | 55 | ZGPPISIDVPFQLLRKVIEIEKQEKEKQQAANNARLLARI (C-terminal amide) [SEQ ID NO 383] |
| 17.9 | 100 | 1000 | 50.1 | DNPSLSIDVPLYLLRTLLELEKTQSQRERAEQNARIFARV-NH2 [SEQ ID NO 387] |
| 10.2 | 100 | 1000 | 46 | DNPSLSIDVPLFLLRTLLELEKTQSQRERAEQNARIFARV-NH2 [SEQ ID NO 385] |
| 8.7 | 96 | 1000 | 78.2 | DNPSLSIDVPFFLLRTLLELEKTQSQRERAEQNARIFARV-NH2 [SEQ ID NO 386] |
| 74.3 | 60 | 100 | 4 | IVLSLDVVIGLLQILLEQARARAAREQATTNARILARV-NH2 [SEQ ID NO 214] |
| 7.1 | 97.3 | 1000 | 70.3 | DNPSLSIDVPLLLLRTLLELEKTQSQRERAEQNARIFARV-NH2 [SEQ ID NO 384] |
